Results as given in article PMC3063399 (Cell, 2011).
Read-outs that look alike come from different tables or passages of the source.

Tests used:
PAN ATPase complex [1] = target: PAN ATPase complex (UniProt Q58576); assay: fluorescence polarisation
PAN ATPase complex [2] = target: PAN ATPase complex (UniProt Q58576); assay: fluorescence polarisation; remark: listed apart in the source
PAN = target: T1, PAN (Methanocaldococcus jannaschii, UniProt Q58576); assay: α-32P-ATP binding, rapid spin gel filtration
T1 sequence (Q58576 1-430): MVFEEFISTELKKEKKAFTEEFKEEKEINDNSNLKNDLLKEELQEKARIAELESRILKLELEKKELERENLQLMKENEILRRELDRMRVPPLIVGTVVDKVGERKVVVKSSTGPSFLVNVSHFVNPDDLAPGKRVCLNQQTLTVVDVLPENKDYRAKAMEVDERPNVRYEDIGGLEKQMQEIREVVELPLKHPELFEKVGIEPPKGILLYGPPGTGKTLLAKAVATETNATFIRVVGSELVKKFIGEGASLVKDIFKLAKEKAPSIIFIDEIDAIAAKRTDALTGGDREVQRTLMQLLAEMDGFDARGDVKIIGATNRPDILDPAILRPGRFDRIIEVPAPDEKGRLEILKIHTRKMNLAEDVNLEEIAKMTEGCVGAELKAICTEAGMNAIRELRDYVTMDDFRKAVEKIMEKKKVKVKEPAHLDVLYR

[3] = substrate: Nc1ncnc2c1ncn2[C@@H]1O[C@H](COP(=O)(O)OP(=O)(O)OP(=O)(O)O)[C@@H](O)[C@H]1O; assay: ATPase, inorganic phosphate release; assay type: biochemical, Methanocaldococcus jannaschii; settings: 45 °C

FITC-casein (from UniProt P02666 16-224) (natural protein)
change in polarization (PAN ATPase complex [1]): 7 mP
change in polarization (PAN ATPase complex [2]): 56 mP

Nc1ncnc2c1ncn2[C@@H]1O[C@H](COP(=O)(O)OP(=O)(O)OP(=O)(O)O)[C@@H](O)[C@H]1O [ATP]
Kd (PAN): 13 µM

B1: PAN (Methanocaldococcus jannaschii DSM 2661) (protein)
chain: MVFEEFISTELKKEKKAFTEEFKEEKEINDNSNLKNDLLKEELQEKARIAELESRILKLELEKKELERENLQLMKENEILRRELDRMRVPPLIVGTVVDKVGERKVVVKSSTGPSFLVNVSHFVNPDDLAPGKRVCLNQQTLTVVDVLPENKDYRAKAMEVDERPNVRYEDIGGLEKQMQEIREVVELPLKHPELFEKVGIEPPKGILLYGPPGTGKTLLAKAVATETNATFIRVVGSELVKKFIGEGASLVKDIFKLAKEKAPSIIFIDEIDAIAAKRTDALTGGDREVQRTLMQLLAEMDGFDARGDVKIIGATNRPDILDPAILRPGRFDRIIEVPAPDEKGRLEILKIHTRKMNLAEDVNLEEIAKMTEGCVGAELKAICTEAGMNAIRELRDYVTMDDFRKAVEKIMEKKKVKVKEPAHLDVLYR
Km [3]: 263 ± 18 µM
